Assay results from article PMC7276532, “C-terminal eYFP fusion impairs Escherichia coli MinE function” (Open Biology, 2020).

T1: Strep-MinD^D40AΔ10 (E. coli, UniProt P0AEZ3 1-260, D40A)
T1 construct: MinD, E. coli, with D40A and lacking the last 10 amino acids; the reverse primer anneals 33 nucleotides upstream of the stop codon of minD; Cloned into the pET28a backbone without the region between NcoI and HindIII, so without the His and T7 tags; also called MinD^D40Δ10; source: E. coli Rosetta (DE3) pLysS, purified (Strep-Tactin cartridge, desalting); not shown: Strep-tag, N-terminal, kept
T1 sequence (looked up): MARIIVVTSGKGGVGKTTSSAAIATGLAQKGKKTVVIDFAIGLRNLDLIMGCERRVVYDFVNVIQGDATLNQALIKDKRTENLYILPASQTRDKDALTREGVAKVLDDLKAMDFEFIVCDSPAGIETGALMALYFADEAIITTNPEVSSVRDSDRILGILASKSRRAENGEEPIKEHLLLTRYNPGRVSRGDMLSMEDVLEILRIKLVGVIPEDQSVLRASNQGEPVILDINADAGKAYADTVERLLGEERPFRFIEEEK

B1: His-MinE (natural protein, E. coli, UniProt P0A734 1-88, looked up)
chain: MALLDFFLSRKKNTANIAKERLQIIVAERRRSDAEPHYLPQLRKDILEVICKYVQIDPEMVTVQLEQKDGDISILELNVTLPEAEELK
notes: MinE, E. coli; the minE gene amplified from the MG1655 genome into pET28a (BamHI/HindIII); 88 amino acids; The same construct as m1, with the His-tag kept for the pull-down; source: E. coli Rosetta (DE3) pLysS, purified (IMAC nickel column, desalting); not shown: His6, N-terminal, kept
B2: MinE (untagged MinE; His-tag removed with thrombin) (natural protein, E. coli, UniProt P0A734 1-88, looked up)
chain: B1 chain
notes: MinE, E. coli; the minE gene amplified from the MG1655 genome into pET28a (BamHI/HindIII); 88 amino acids; Eluted as a tetramer in SEC; also called wild-type; source: E. coli Rosetta (DE3) pLysS, purified (IMAC nickel column, desalting), His-tag removed with thrombin; not shown: His6, N-terminal, cleaved

Key:
Strep-MinD^D40AΔ10 = biological target: T1, Strep-MinD^D40AΔ10; assay: pull-down; about 5 µM His-MinE or His-MinE-eYFP on MagneHis beads with 3 µM Strep-MinD^D40AΔ10, with ATP (1 mM), 5 mM MgCl2, 50 mM HEPES-KOH pH 7.25, 150 mM KCl, 10% glycerol, room temperature, 15 min; eluted with imidazole; settings: both partners purified
[1] = biological target: the molecule itself; assay: SEC; Superdex 200, 13 µM protein injected, 50 mM HEPES-KOH pH 7.25, 150 mM KCl, 0.1 mM EDTA, 10% glycerol, room temperature; size judged against BSA (66 kDa) and carbonic anhydrase (29 kDa)

Binder	binding result (Strep-MinD^D40AΔ10)	stoichiometry N [1]
B1	binds	
B2		4
